Measurements from the Human Domainome abundance scans (Beltran et al. 2025).

B1: Integrator complex subunit 12, residues 155 to 213; numbered along this chain, Q96CB8 (parent)
chain: AMEMGLACVVCRQMMVASGNQLVECQECHNLYHRDCHKPQVTDKEANDPRLVWYCARCT

Variants of: B1
Test: abundance fitness (aPCA) (normalised: wild type 0, dead -1); higher = more abundant; growth selection in yeast, the domain comes from the species named
Details: Homo sapiens

Abundance fitness: each site, then its substitutions
C36: W -0.843; T -0.588; S -0.716; R -0.619; Y -0.727; V -0.73
P39: W -0.363; L -0.294; V -0.257; M -0.248; C 0.045; Y -0.295; G -0.28; F -0.308; N -0.144; I -0.184; S -0.228; T -0.087; A -0.313; R -0.279; H -0.347
K38: G -0.15; Y -0.134; C -0.089; Q -0.015; D 0.081; S 0.016; R -0.028; F -0.139; N -0.209; E 0.008; M -0.05; W -0.341; T 0.011; P -0.309; V 0.035; L -0.096
H37: K -0.379; W -0.297; Q -0.176; V -0.075; N -0.144; F -0.226; D -0.002; E -0.223; M 0.031; L -0.145; S -0.088; Y -0.249; C -0.144; I -0.007; R -0.315; G -0.148; A -0.048; T -0.101; P -0.645
D43: P -0.093; F -0.118; M -0.056; V -0.057; Q -0.123; H -0.155; K -0.163; A -0.05; L -0.098; W -0.189; Y -0.161; S -0.074; I -0.073; T -0.08; C -0.078; R -0.25; E -0.037; N 0.043
A46: D -0.092; K 0.05; H -0.181; G -0.029; C -0.149; I -0.077; F 0.07; E -0.061
E45: A -0.087; H -0.134; K 0.073; L -0.048; P -0.222; Y 0.005; Q -0.014; W -0.248; G -0.222; V -0.038; N -0.074; T -0.052; I -0.213; D 0.005; F -0.192; C -0.111; R -0.207; M -0.193
K44: I 0.024; W -0.306; R -0.042; E 0.042; D 0.078; V -0.038; A 0.008; C 0.059; Y -0.486; S -0.074; Q -0.081; F -0.139; P -0.076; L -0.121; T 0.043; N 0.119; H -0.124; M -0.036; G 0.023
V41: N -0.481; D -0.297; L -0.011; F -0.175; S -0.204; I 0.135; G -0.235; W -0.314; E -0.303; T -0.165; H -0.639; R -0.308; Y -0.346; P -0.211; C -0.276
Q40: H -0.055; A -0.002; C 0.148; N 0.051; L -0.045; G 0.001; D -0.07; E -0.04; M -0.112; K -0.035; W -0.102; F -0.023; I 0.023; P -0.009; Y -0.264; V -0.063; T 0.02
T42: G 0; N -0.041; I -0.281; V -0.136; H -0.089; W -0.198; Y -0.165; K -0.01; C 0.069; A -0.024; D -0.107; Q -0.064; P 0.039; F -0.24; E -0.066; M -0.153
